Source: doi:10.1101/329482 (bioRxiv, 2018)

Target: GP1 receptor-binding domain of Lujo virus (LUJVGP1), residues 74-199 (Lujo virus (LUJV), UniProt C5ILC1 74-199)
Assay: crystal structure

B1: first CUB domain of neuropilin-2 (NRP2), binding site fragment (domain or fragment)
chain: PCGGRLNSKDAGYITSPGYPQDYPSHQNCEWIVYAPEPNQKIVLNFNPHFEIEKHDCKYDFIEIRDGDSESADLLGKHCGNIAPPTIISSGSMLYIKFTSDYARQGAGFSLRYEIFKTGS
binding result: binds
